Source: article PMC8315086 (Cell Discovery, 2021)

Assays:
Settings in all cases: both partners purified
[1] = target: T1, recombinant SARS-CoV-2 S1 protein (Kactus Biosystems) (SARS-CoV-2, original wild type …, UniProt P0DTC2); assay: SPR
[2] = target: T1, recombinant SARS-CoV-2 S1 protein …; assay: SPR; remark: listed apart in the source
[3] = target: SARS-CoV-2 S1-His protein (SARS-CoV-2); assay: ELISA
[4] = target: SARS-CoV-2 S1-hFc protein (SARS-CoV-2); assay: ELISA

B1: 2B11 monoclonal antibody (full-length human IgG1) (antibody, V domains shown)
VH: EVQLVESGGGLVQPGGSLRLSCAASEITVSSNYMNWVRQAPGKGLEWVSVIYSGGTTYYADSVKGRFTISRDNSENTLYLQMNSLRAEDTAVYYCARDLMEVGGMDVWGQGTTVTVSS
VL: LPVLTQPPSASGTPGQRVTISCSGSSSNVENDNVNWFQQQVPGSTPKLVIYNDRLRPSGVPDRFSGSKSGTSAYLAISGLQSEDEADYYCVAWDASLQSYVFGTGTKVTVL
**Q.** Which Kd [1] does the source give for B1 here?
**A.** 4.67 nM

**Q.** And the Kd [2]?
**A.** 4.76 nM

**Q.** And the EC50 [3]?
**A.** 0.051 nM

**Q.** And the IC50 [4]?
**A.** 2.79 nM
